This data set concerns the molecule itself. The data set is described as follows: non-reducing SDS-PAGE and immunoblot (dimer/monomer detection); A549 cells untreated or treated with GSNO for 24 h; 100 mM N-ethyl maleimide for 20 min at 37 °C to preserve the Prdx2 redox state; nonreducing lysis buffer (100 mM Tris-HCl pH 6.8, 10% glycerol, 2% SDS) with 100 mM NEM; immunoblot for Prdx2. On the technique in general: In western blotting, separated proteins are transferred to a membrane and probed.

By stoichiometry N is commonly meant the number of molecules, sites or subunits per partner or assembly.

B1: Peroxiredoxin-2 (enzyme, human (endogenous in A549), UniProt P32119 1-198, looked up)
chain: MASGNARIGKPAPDFKATAVVDGAFKEVKLSDYKGKYVVLFFYPLDFTFVCPTEIIAFSNRAEDFRKLGCEVLGVSVDSQFTHLAWINTPRKEGGLGPLNIPLLADVTRRLSEDYGVLKTDEGIAYRGLFIIDGKGVLRQITVNDLPVGRSVDEALRLVQAFQYTDEHGEVCPAGWKPGSDTIKPNVDDSKEYFSKHN
notes: Peroxiredoxin-2 (Prdx2), endogenous in human A549 lung cancer cells; three cysteines Cys51, Cys70, Cys172; The dimer seen on the non-reducing gel is the disulfide-linked (Cys51-Cys172) form; also called Prdx2; source: endogenous, A549 cells, in lysate
On to B1, for which the “stoichiometry N” value was found to be 2.

The record behind these values is article PMC6465399, “S-nitrosylation of the Peroxiredoxin-2 promotes S-nitrosoglutathione-mediated lung cancer cells apoptosis via AMPK-SIRT1 pathway” (Cell Death & Disease, 2019).
